Experimental data taken from US6730503B1 (Roche Vitamins Inc., priority 1996, dated 2004).
“And” between values parts separate entries of the source, which are not always exact repeats. Equal entries are not always repeated. “Also recorded” adds a separate entry of the source.

Columns and labels:
[1] = Products of enzyme reactions with purified enzymes, identified by TLC and/or HPLC; assay type: biochemical
Experimental: Products formed from a substrate in the reaction with Enzyme A, Enzyme A′, Enzyme A″ or Enzyme B were analyzed by thin layer chromatography (TLC) and/or high performance liquid chromatography (HPLC) with authentic compounds. […] Similarly to the reactivity for L-sorbosone, D-glucosone can be converted to 2KD by all of above mentioned AADHs. A group enzymes can produce 2KD from D-fructose whose possible direct product is D-glucosone. […]
Enzyme reactions with purified Enzyme A or Enzyme B and various substrates were performed as described in Example 11.

[2] = Thermal stability, 5 minutes, residual activity by PMS-DCIP assay; assay type: physicochemical
Experimental: Table 4 indicates the results of thermal-stabilities of the enzymes. The enzyme (about 0.05 mg/ml) in 25 mM HEPES buffer, pH 7.5, containing 5% sucrose, 0.2 M NaCl, and 5 mM CaCl2 was incubated at temperature indicated in the table (4-60° C.) for 5 minutes, cooled in ice bath and assayed by PMS-DCIP spectrophotometric method. Remaining activity was expressed as relative activity against that obtained by 4° C. incubation.

[3] = Product assay with Enzyme sA2 and Enzyme A; assay type: biochemical
[4] = 2KGA production by purified recombinant AADH in a reaction mixture; assay type: biochemical; settings: 1.7 mg/ml enzyme, 4% L-sorbose, 30° C., 20 hours; TLC assay
Description: As a result, about 2 g/l 2KGA (TLC assay) was produced. […]

[5] = 4° C. for 5 minutes (reference)
[6] = 20° C. for 5 minutes, relative to 4° C. incubation
[7] = 30° C. for 5 minutes, relative to 4° C. incubation
[8] = 40° C. for 5 minutes, relative to 4° C. incubation
[9] = 50° C. for 5 minutes, relative to 4° C. incubation
[10] = 60° C. for 5 minutes, relative to 4° C. incubation

Molecule	Product ([1]; substrate D-Gluconic acid)	Product ([1]; substrate D-Glucose)	Product ([1]; substrate D-Mannitol)	Product ([1]; substrate D-Mannoic acid)	Product ([1]; substrate D-Sorbitol)	Product ([1]; substrate Glycerol)	Product ([1]; substrate L-Idose)	Product ([1]; substrate L-Sorbosone) [KGA]	Relative activity (thermal stability) [2, 5] [%]	Relative activity (thermal stability) [2, 6] [%]	Relative activity (thermal stability) [2, 7] [%]	Relative activity (thermal stability) [2, 8] [%]	Relative activity (thermal stability) [2, 9] [%]	Relative activity (thermal stability) [2, 10] [%]	Product ([1]; substrate D-Fructose)	Product ([1]; substrate L-Sorbose)	Products from D-sorbitol in product assay [3]	Products from L-sorbose in product assay [3] [KGA]	Residual activity ([2]; 40° C. for 5 min) [%]	2KGA produced [4]
Enzyme B: recombinant AADH of G. oxydans DSM No. 4025, amino acid sequence SEQ ID NO 8, plasmid pSS31/pSSB103R (protein, Gluconobacter oxydans; SIGNAL (1)..(23)) MNPTTLLRTSAAVLLLTAPAAFAQVTPITDELLANPPAGEWINYGRNQENYRHSPLTQITADNVGQLQLVWARGMEAGAVQVTPMIHDGVMYLANPGDVIQALDAQTGDLIWEHRRQLPAVATLNAQGDRKRGVALYGTSLYFSSWDNHLIALDMETGQVVFDVERGSGEDGLTSNTTGPIVANGVIVAGSTCQYSPYGCFISGHDSATGEELWRNHFIPQPGEEGDETWGNDFEARWMTGVWGQITYDPVTNLVFYGSTGVGPASETQRGTPGGTLYGTNTRFAVRPDTGEIVWRHQTLPRDNWDQECTFEMMVANVDVQPSAEMEGLRAINPNAATGERRVLTGAPCKTGTMWSFDAASGEFLWARDTNYTNMIASIDETGLVTVNEDAVLKELDVEYDVCPTFLGGRDWSSAALNPDTGIYFLPLNNACYDIMAVDQEFSALDVYNTSATAKLAPGFENMGRIDAIDISTGRTLWSAERPAANYSPVLSTAGGVVFNGGTDRYFRALSQETGETLWQARLATVATGQAISYELDGVQYIAIGAGGLTYGTQLNAPLAEAIDSTSVGNAIYVFALPQ	5-keto-D-gluconic acid and 5-Keto-D-gluconic acid	D-gluconate; also recorded: D-Gluconic acid	D-Fructose	5-keto-D-mannoic acid and 5-Keto-D-mannoic acid	L-Sorbose	Dihydroxyacetone	L-Idonic acid	2	100.0	97.2	95.4	84.6	29.2	0.0						
Enzyme A′: recombinant AADH of G. oxydans DSM No. 4025, amino acid sequence SEQ ID NO 6, plasmid p1E2 (protein, Gluconobacter oxydans; SIGNAL (1)..(23)) MKTSSLLVASVAALASYSSFALAQVTPVTDELLANPPAGEWISYGQNQENYRHSPLTQITTENVGQLQLVWARGMQPGKVQVTPLIHDGVMYLANPGDVIQAIDAKTGDLIWEHRRQLPNIATLNSFGEPTRGMALYGTNVYFVSWDNHLVALDTATGQVTFDVDRGQGEDMVSNSSGPIVANGVIVAGSTCQYSPFGCFVSGHDSATGEELWRNYFIPRAGEEGDETWGNDYEARWMTGVWGQITYDPVGGLVHYGSSAVGPASETQRGTTGGTMYGTNTRFAVRPETGEIVWRHQTLPRDNWDQECTFEMMVANVDVQPAADMDGVRSINPNAATGERRVLTGVPCKTGTMWQFDAETGEFLWARDTSYENIIESIDENGIVTVDESKVLTELDTPYDVCPLLLGGRDWPSAALNPDTGIYFIPLNNTCMDIEAVDQEFSSLDVYNQSLTAKMAPGKELVGRIDAIDISTGRTLWTAEREASNYAPVLSTAGGVLFNGGTDRYFRALSQETGETLWQTRLATVASGQAVSYEIDGVQYIAIGGGGTTYGSFHNRPLAEPVDSTAIGNAMYVFALPQQ			D-mannose		D-glucose with L-gulose			2	100.0	100.8	103.6	78.9	0.6	0.0	2-keto-D-gluconic acid	L-sorbosone with 2KGA				
Enzyme A″: recombinant AADH of G. oxydans DSM No. 4025, amino acid sequence SEQ ID NO 7, plasmid p26C3 (protein, Gluconobacter oxydans; SIGNAL (1)..(23)) MKLTTLLQSSAALLVLGTIPALAQTAITDEMLANPPAGEWINYGQNQENYRHSPLTQITADNVGQLQLVWARGMEAGKIQVTPLVHDGVMYLANPGDVIQAIDAATGDLIWEHRRQLPNIATLNSFGEPTRGMALYGTNVYFVSWDNHLVALDTSTGQVVFDVDRGQGTDMVSNSSGPIVANGVIVAGSTCQYSPFGCFVSGHDSATGEELWRNTFIPRAGEEGDETWGNDYEARWMTGVWGQITYDPVGGLVHYGTSAVGPAAEIQRGTVGGSMYGTNTRFAVRPETGEIVWRHQTLPRDNWDQECTFEMMVVNVDVQPSAEMEGLHAINPDAATGERRVVTGVPCKNGTMWQFDAETGEFLWARDTSYQNLIESVDPDGLVHVNEDLVVTELEVAYEICPTFLGGRDWPSAALNPDTGIYFIPLNNACSGMTAVDQEFSSLDVYNVSLDYKLSPGSENMGRIDAIDISTGRTLWSAERYASNYAPVLSTGGGVLFNGGTDRYFRALSQETGETLWQTRLATVASGQAISYEIDGVQYVAIGRGGTSYGSNHNRALTERIDSTAIGSAIYVFALPQQ			D-mannose		D-glucose with L-gulose			2	100.0	96.0	86.1	72.8	26.6	13.3	2-keto-D-gluconic acid	L-sorbosone with 2KGA				
Enzyme A: recombinant AADH of G. oxydans DSM No. 4025, amino acid sequence SEQ ID NO 5, plasmid p24D4/pSSA102R (protein, Gluconobacter oxydans; SIGNAL (1)..(23)) MKPTSLLWASAGALALLAAPAFAQVTPVTDELLANPPAGEWISYGQNQENYRHSPLTQITTENVGQLQLVWARGMQPGKVQVTPLIHDGVMYLANPGDVIQAIDAKTGDLIWEHRRQLPNIATLNSFGEPTRGMALYGTNVYFVSWDNHLVALDTATGQVTFDVDRGQGEDMVSNSSGPIVANGVIVAGSTCQYSPFGCFVSGHDSATGEELWRNYFIPRAGEEGDETWGNDYEARWMTGAWGQITYDPVTNLVHYGSTAVGPASETQRGTPGGTLYGTNTRFAVRPDTGEIVWRHQTLPRDNWDQECTFEMMVTNVDVQPSTEMEGLQSINPNAATGERRVLTGVPCKTGTMWQFDAETGEFLWARDTNYQNMIESIDENGIVTVNEDAILKELDVEYDVCPTFLGGRDWPSAALNPDSGIYFIPLNNVCYDMMAVDQEFTSMDVYNTSNVTKLPPGKDMIGRIDAIDISTGRTLWSVERAAANYSPVLSTGGGVLFNGGTDRYFRALSQETGETLWQTRLATVASGQAISYEVDGMQYVAIAGGGVSYGSGLNSALAGERVDSTAIGNAVYVFALPQ			D-Mannose		D-glucose with L-gulose			2	100.0	91.5	78.0	19.9	4.1	2.9		L-sorbosone with 2KGA	D-glucose only	2	20	about 2 g/l
